Results from EP0980526B1, “INHIBITORS OF NUCLEAR PROTEIN/NUCLEAR RECEPTOR INTERACTION” (IMPERIAL CANCER RESEARCH TECHNOLOGY LIMITED, priority 1997, dated 1998).
Blank lines part the entries; values can stand above or below the substance they belong to.

Tests used:
[1] = target: mouse ER (expressed in transfected Hela cells) (mouse) (UniProt P19785); experiment: cell-based or functional assay
[2] = target: AAD-ER (acidic activation domain fused to the LBD of the wild-type ER) (human) (UniProt P03372); experiment: yeast two-hybrid
AAD-ER (acidic activation domain fused to the LBD of the wild-type ER) (human), sequence (P03372 282-595 limits assumed): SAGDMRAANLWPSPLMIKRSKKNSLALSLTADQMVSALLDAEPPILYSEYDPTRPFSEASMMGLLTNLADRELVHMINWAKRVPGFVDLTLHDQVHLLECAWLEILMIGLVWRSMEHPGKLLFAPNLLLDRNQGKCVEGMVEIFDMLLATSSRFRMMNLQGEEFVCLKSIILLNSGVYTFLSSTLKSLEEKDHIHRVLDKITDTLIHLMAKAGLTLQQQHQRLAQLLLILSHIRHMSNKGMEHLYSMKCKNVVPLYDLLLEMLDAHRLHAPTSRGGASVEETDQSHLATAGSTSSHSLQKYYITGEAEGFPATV

[3] = target: AAD-ER (acidic activation domain fused to the LBD of the wild-type ER) (human) (UniProt P03372); experiment: cell-based or functional assay

mouse ER (expressed in transfected Hela cells) (mouse), sequence (P19785 whole entry, the tested form may be a part): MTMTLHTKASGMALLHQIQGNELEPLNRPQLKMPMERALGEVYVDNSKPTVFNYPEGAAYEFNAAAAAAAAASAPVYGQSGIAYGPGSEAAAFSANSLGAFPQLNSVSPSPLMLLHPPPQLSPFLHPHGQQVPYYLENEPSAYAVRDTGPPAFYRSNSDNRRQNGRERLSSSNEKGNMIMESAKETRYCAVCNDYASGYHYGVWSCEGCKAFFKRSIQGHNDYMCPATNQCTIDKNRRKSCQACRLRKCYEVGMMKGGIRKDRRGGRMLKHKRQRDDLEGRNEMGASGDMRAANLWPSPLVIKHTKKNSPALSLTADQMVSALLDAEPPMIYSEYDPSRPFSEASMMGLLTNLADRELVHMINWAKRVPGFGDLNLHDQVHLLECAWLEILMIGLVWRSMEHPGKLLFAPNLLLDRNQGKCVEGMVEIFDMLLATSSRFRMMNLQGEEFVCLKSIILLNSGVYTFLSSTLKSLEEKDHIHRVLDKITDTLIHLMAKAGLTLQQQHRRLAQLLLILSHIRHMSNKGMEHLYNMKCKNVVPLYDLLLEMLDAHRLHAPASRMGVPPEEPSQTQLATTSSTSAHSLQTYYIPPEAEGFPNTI
DBD-SRC1a 45-53, sequence (P03372 176-282, form in doubt): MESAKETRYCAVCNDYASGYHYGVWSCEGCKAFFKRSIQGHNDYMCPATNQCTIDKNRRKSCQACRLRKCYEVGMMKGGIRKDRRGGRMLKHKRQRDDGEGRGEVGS

activity of ER on the reporter 2ERE-pS2-CAT in transiently transfected Hela cells [1]: < 50%
Substance: SRC1e M123 (from UniProt Q15788 1-1399)

Substance: DBD-SRC1a 45-53 (from UniProt P03372 176-282)
fold interaction (two-hybrid reporter) [2]: 6 fold

Substance: DBD-RIP140 935-943 with valine 935 mutated to alanine (from UniProt P03372 176-282; P48552 935-943)
reporter activity in the presence of ligand (β-galactosidase, yeast two hybrid) (fold reduction) [3]: 10
